{
  "source": "paper doi:10.1101/2023.07.23.550228",
  "molecular_target": "GvpT (B. megaterium)",
  "experiment": "SDS-PAGE and Western blot",
  "data": [
    {"substance": "GvpT (natural protein)", "values": [
      {"measurement": "stoichiometry N", "value": 2}
    ]}
  ]
}
